PMC6328864, “Regulation of Myosin-5b by Rab11a and the Rab11 family interacting protein 2” (Bioscience Reports, 2018)

T1: Flag-Myo5b-GTD (Rattus norvegicus (Rat), UniProt P70569)
T1 chain: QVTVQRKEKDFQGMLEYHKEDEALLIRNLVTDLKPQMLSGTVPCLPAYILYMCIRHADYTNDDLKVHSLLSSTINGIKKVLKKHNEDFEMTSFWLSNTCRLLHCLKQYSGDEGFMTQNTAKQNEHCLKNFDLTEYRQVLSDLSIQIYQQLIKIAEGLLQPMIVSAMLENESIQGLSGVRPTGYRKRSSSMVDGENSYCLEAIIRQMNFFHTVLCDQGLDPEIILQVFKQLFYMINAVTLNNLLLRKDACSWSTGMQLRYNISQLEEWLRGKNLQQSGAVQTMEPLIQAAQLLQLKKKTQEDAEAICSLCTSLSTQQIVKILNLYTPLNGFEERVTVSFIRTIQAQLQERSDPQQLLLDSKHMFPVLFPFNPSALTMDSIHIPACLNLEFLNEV

B1: GST–Rab11a (natural protein, human, UniProt P62491 1-216, looked up)
chain: MGTRDDEYDYLFKVVLIGDSGVGKSNLLSRFTRNEFNLESKSTIGVEFATRSIQVDGKTIKAQIWDTAGQERYRAITSAYYRGAVGALLVYDIAKHLTYENVERWLKELRDHADSNIVIMLVGNKSDLRHLRAVPTDEARAFAEKNGLSFIETSALDSTNVEAAFQTILTEIYRIVSQKQMSDRRENDMSPSNNVVPIHVPPTTENKPKVQCCQNI
notes: Rab11a, human (cDNA by RT-PCR from human brain cDNA); GTPγS also in the pull-down buffers; source: E. coli, purified (GSH-Sepharose); not shown: GST, N-terminal, kept

How the values were obtained:
GST–Rab11a = molecular target: B1; assay: pull-down; GSH-Sepharose; 0.5 μM GST–Rab11a (bait), 0–1.0 μM Flag-Myo5b-GTD, 0–1.0 μM Flag-FIP2-RBD; Buffer-B with 100 mM NaCl and 3 μM GTPγS; 4°C, 1 h; eluted with 20 mM GSH; Western blot (anti-Flag, anti-GST); details: both partners purified
Flag-Myo5b-GTD = molecular target: T1, Flag-Myo5b-GTD; assay: GST pull-down / anti-Flag pull-down; Rab11a loaded with GTPγS/Mg2+; binding competed away by FIP2-RBD
[1] = molecular target: T2, Flag-FIP2 (full-length Rab11 family interacting protein 2) (human, UniProt Q7L804 1-512); assay: pull-down; GSH-Sepharose; 0.5 μM GST–Rab11a (bait), 0–0.5 μM Flag-Myo5b-Tail, 0–1.0 μM Flag-FIP2 or Flag-FIP2-RBD; Buffer-B with 100 mM NaCl and 3 μM GTPγS; 4°C, 1 h; eluted with 20 mM GSH; Coomassie staining; details: both partners purified
T2 construct: not shown: Flag, N-terminal, kept

binding result (GST–Rab11a)	binding result (Flag-Myo5b-GTD)	binding result [1]	Binder
binds	–	–	Flag-FIP2-RBD (domain or fragment, human, UniProt Q7L804 452-512, looked up, not shown: Flag, N-terminal, kept) TYEEVLQELVKHKELLRRKDTHIRELEDYIDNLLVRVMEETPSILRVPYEPSRKAGKFSNS
–	binds	binds	B1
